According to patent US20250129140A1 (ICAHN SCHOOL OF MEDICINE AT MOUNT SINAI, published 2025):

Experiments:
[1] = biological target: T1, gH/gL of HCMV strain TB40/E (on virus) (human cytomegalovirus (strain TB40/E)); experiment: cell-based or functional assay
[2] = biological target: T2, gH/gL of HCMV strain AD169 (on virus AD169 and on reporter virus AD169R) (human cytomegalovirus (strain AD169), UniProt P12824 24-743; P16832 31-278); experiment: cell-based or functional assay
[3] = biological target: T1, gH/gL of HCMV strain TB40/E (on virus); experiment: cell-based or functional assay; remark: listed apart in the source
[4] = biological target: T2, gH/gL of HCMV strain AD169 (on virus …); experiment: cell-based or functional assay; remark: listed apart in the source
[5] = biological target: gH/gL of HCMV strain TR (on virus) (human cytomegalovirus (strain TR)); experiment: cell-based or functional assay
[6] = biological target: gH/gL of HCMV strain Towne (on virus) (human cytomegalovirus (strain Towne), UniProt P17176 30-742); experiment: cell-based or functional assay
gH/gL of HCMV strain Towne (on virus), sequence (P17176 30-742): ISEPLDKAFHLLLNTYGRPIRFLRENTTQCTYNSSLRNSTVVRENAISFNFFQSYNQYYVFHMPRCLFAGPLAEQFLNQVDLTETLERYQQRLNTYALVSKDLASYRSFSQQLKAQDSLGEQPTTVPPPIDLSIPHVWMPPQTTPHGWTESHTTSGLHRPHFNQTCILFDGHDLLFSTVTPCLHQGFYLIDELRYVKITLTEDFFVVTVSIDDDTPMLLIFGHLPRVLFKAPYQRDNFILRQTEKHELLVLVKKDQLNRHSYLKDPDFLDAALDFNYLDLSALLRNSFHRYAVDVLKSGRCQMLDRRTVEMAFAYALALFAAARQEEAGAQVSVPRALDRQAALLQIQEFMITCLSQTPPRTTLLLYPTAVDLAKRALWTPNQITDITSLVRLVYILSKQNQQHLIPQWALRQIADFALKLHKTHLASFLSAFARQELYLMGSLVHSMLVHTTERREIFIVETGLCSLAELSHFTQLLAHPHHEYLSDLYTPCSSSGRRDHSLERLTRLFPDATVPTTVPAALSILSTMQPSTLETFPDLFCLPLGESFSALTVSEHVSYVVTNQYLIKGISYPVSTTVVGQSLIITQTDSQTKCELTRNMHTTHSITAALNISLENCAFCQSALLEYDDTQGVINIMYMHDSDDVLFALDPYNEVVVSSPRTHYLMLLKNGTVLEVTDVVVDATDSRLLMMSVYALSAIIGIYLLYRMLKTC

[7] = biological target: T2, gH/gL of HCMV strain AD169 (on virus …); experiment: cell-based or functional assay; remark: listed apart in the source
[8] = biological target: T3, recombinant HCMV pentamer (strain VR1814) consisting of gH, gL, UL128, UL130 and UL131A (human cytomegalovirus (strain VR1814)); experiment: BLI (Octet RED); antibody captured on anti-mouse Fc (AMC) biosensor, recombinant pentamer 100 µg/mL in solution; 1:1 model
T3 construct: also called recombinant pentamer; Native Antigen CMV-PENT-100

[9] = biological target: T2, gH/gL of HCMV strain AD169 (on virus …); experiment: flow cytometry on ARPE-19 cells infected with AD169R (GFP reporter), 6 dpi, antibody 2 µg/mL, anti-mouse AF647 secondary
[10] = biological target: T2, gH/gL of HCMV strain AD169 (on virus …); experiment: cell-based or functional assay; remark: listed apart in the source
[11] = biological target: T1, gH/gL of HCMV strain TB40/E (on virus); experiment: cell-based or functional assay; remark: listed apart in the source
[12] = biological target: gH/gL of HCMV strain AD169 (on virus AD169 and on reporter virus AD169R) (human cytomegalovirus (strain AD169), UniProt P12824 24-743; P16832 31-278); experiment: flow cytometry on ARPE-19 cells infected with AD169R (GFP reporter), 6 dpi, antibody 2 µg/mL, anti-mouse AF647 secondary; remark: listed apart in the source

Binder	IC50(ARPE-19) TB40/E, virus neutralization [1]	IC50(HTR-svNeo) TB40/E, virus neutralization [1]	IC50(ARPE-19) AD169R, virus neutralization [2]	IC50(HTR-svNeo) AD169R, virus neutralization [2]	IC50(MRC5/NHDF) TB40/E, virus neutralization [3]	IC50(MRC5/NHDF) AD169, virus neutralization [4]	IC50(MRC5/NHDF) AD169R, virus neutralization [4]	IC50(MRC5/NHDF) TR, virus neutralization [5]	IC50(MRC5/NHDF) Towne, virus neutralization [6]	IC50(THP-1) AD169R, virus neutralization [7]	Kd [8]	koff [8]	kon [8]	Q2, percent of cells GFP+ and Alexa Fluor 647+ [9]	neutralization of BADrUL131-C4 infection at the highest concentrations [10]	IC50 of infection, AD169R neutralization (murine constant regions) [10]	IC50(THP-1) TB40/E, virus neutralization [11]	Q2, percent of cells GFP+ and Alexa Fluor 647+ [12]
14E1 (antibody, V domains shown, also called 14E1 (ms)) VH: QVQLVQSGAEVKKPGASVKVSCKASGYTFTSYSISWVRQAPGQGLEWMGWINTYNGNTNYAQRVQARVTMTTDTSTSTAYMELRSLRSDDTAVYYCARDHGFFFDYWGQGNLVTVSS VL: DIQLTQSPSFLSASVGDRVTITCWASQGISSYLAWYQQKPGKAPKLLIYAASTLQSGVPSRFSGSGSGTEFTLTISSLQPEDFATYYCQQLNSYPYTFGQGTQLEIK	3.06 µg/mL	> 50 µg/mL	0.11 µg/mL	19.2 µg/mL	0.89 µg/mL	0.91 µg/mL	1.78 µg/mL	> 50 µg/mL	> 50 µg/mL	0.02 µg/mL	64.6 nM	0.00158 s⁻¹	24400 M⁻¹ s⁻¹	3.68%				
9A12 (antibody, V domains shown, also called 9A12 (ms); anti-gH mAb 9A12) VH: EVQLVESGGVLVQPGGSLRLSCAASGFTFSSHEMNWVRQAPGKGLEWISYISSTGSTIYDADSVKGRFTISRDNAKNSLYLQMNSLRAEDTAVYYCARSSGWYRNYSYGMDVWGQGTTVTVSS VL: DIQMAQSPSSLSASVGDRVTITCRASQGIYNYLAWFQQKPGKAPKSLIYAASSLQTGVPSKFSGSGSGTDFTLTISNLQPEDFATYYCQQYNSFPRTFGQGTKVEIK	1.1 µg/mL	0.72 µg/mL	1.28 µg/mL	~1.8 µg/mL	1.09 µg/mL	0.77 µg/mL	1.52 µg/mL	6.96 µg/mL	2.53 µg/mL	0.08 µg/mL	3.47 nM	8.6e-05 s⁻¹	24800 M⁻¹ s⁻¹		> 90%			
15G11 (antibody, V domains shown, also called 15G11 (ms); anti-gH mAb 15G11) VH: QVQLQESGPGLVKPSQTLSLTCTVSGGSISSGYYYWNWIRQHPGKGLECIGYIYYSGTTYYNPSLKSRLFISVDTSKNQFSLKLRSVTAADTAVYYCARGGLGAFDIWGQGTMVTVSS VL: EIVLTQSPGTLSLSPGERATLSCRASQSVSSSYLAWYQQKPGQAPRLLIYGASSRAPGIPDRFSGTGSGTDFTLTISRLEPEDFAVYYCQQYGISPLTFGGGTKVEIK	0.09 µg/mL	0.41 µg/mL	0.24 µg/mL	0.44 µg/mL	0.5 µg/mL	0.31 µg/mL	0.51 µg/mL	3.51 µg/mL	0.87 µg/mL	0.01 µg/mL	2.28 nM	8.69e-05 s⁻¹	38200 M⁻¹ s⁻¹	0.4%	> 90%	0.17 µg/mL	0.39 µg/mL	
5C3 (antibody, V domains shown) VH: QVQLQQPGAELVRPGASVKLSCKASGYTFTTYWMNWVKQRPGQGLEWIGMIDPSDSETHYNQMFKDKATLTVDTSSSTAYMQLSSLTSEDSAVYYCARGRSWFVYWGQGTLVTVSS VL: DIVLTQSPASLAVSLGQRATISCRASKSVSSSGYSYVHWYQQKPGQPPKLLIYLASNLESGVPARFSGSGSGTDFTLNIHSVEEEDAATYYCQHNRELPYTFGGGTKLEIKR																		3.37%
13G1 (antibody, V domains shown, also called 13G1 (ms); anti-gH mAb 13G1) VH: QVTLKESGPVLVKPTETLTLTCTVSGFSLYNARMGVTWIRQPPGKALEWLAHIFSNDERSYTSSLKNRLTISKDTSKSQVVLTMTNMDPVDTATYYCARIDYSNYIGNWFDPWGQGTLVTVSS VL: DIQMTQSPSSLSASVGDRVTITCRASQSISNYLNWYQQKPGKAPKLLIYAASSLQGGVPSRFSGSGSGTDFTLTISSLQPEDFTTYYCQQSYSTPFTFGGGTKVEIK	1.01 µg/mL	1.12 µg/mL	1.03 µg/mL	1.82 µg/mL	0.89 µg/mL	15.9 µg/mL	0.58 µg/mL	3.26 µg/mL	1.09 µg/mL	0.03 µg/mL	5.05 nM	6.51e-05 s⁻¹	12900 M⁻¹ s⁻¹	0.89%	> 90%		0.02 µg/mL	
